Reference: publication PMC11098746 (2024)

B1: 52 (protein)
chain: AEEHEITHKTYFDITIDDKPLGRIVFGLYGKVAPKTVENFVSICKGTVVDGKMLHYTNSIFHRIIPNFMAQGGDITNFNGAGGLSIYGKKFEDENFKVNHAKRGLLSMANAGKNTNGAQFFILFIPTPWLDGRHVVFGEVVEGLDKLVHIEAVGTDSGEPLKRVLVKESGELPL
modifications: bait human Fc-tagged dimer
B2: 66 (protein)
chain: KIISCVIQKNPILHLWKIYSFQKCPHNYYCEQESLKKKKCPPNSIKTIYDGTINDCLCLPGYYLKGNIQTCIPCEKGSYKNTISNDACIKCPINFATLFETSKSVYDCVCRKGYYFSWNTNIDTNDIEKKNIYNNNINSIYRNKNEIKLIKELEEEYAFNVEKKRKNKHKFILHKKLNNRYRENIHKKQISLKRKIKFLNEQKEINNHLNFLHVNEILNIAFFNDNQNYIYKNKNKQENDANIEINPVSKQTSLHSNNIANKYMRNNFLQINEKLYINNANNNYNEYIHKAQCTKCPRKMFCPGYWLENYENEIHHPPIYCPKGSLILGTTIESTDIHKCICRKGYSINLAIKPNRNKNVNVNDNDNGNNNNNANNNNNNANGNSATLNNNNNMCVMCKEGYYKDVIDNSVCAGLCIEFSTSFKGSISKKQCFCTVGKYMIQDEKDENKCINCAKGSICIGGFKFKSLRELIKNQYYINLNIYDHSIPLPKKGYFATFQINHEDFKWKPLNSLHIEINNYEKGNIIITDKIILNVFHKKLHLINIGEKNKYDQADQGIYIKKNLNNNAFIHNNNNIKYIVEESKHLRDRTMANIPNEPILVNEKLEPIIYKNNFLMIDRIPDFHLCPISNRCMGTSSNLCFKGSEGYLCNNCANSYDVIHFRSQCIKCRKKKTEM
modifications: bait human Fc-tagged dimer
B3: 17 (protein)
chain: ANIDKVNLARNFLFSYIQKNLYYTRSYFNVAQLFSTLQIFLDQFCYPGLGRCIPYINKCLCYDKSKMKPKTAKSCLNNCGVISLCSGYPYGPGYKIIPNEFINNRKVVTCVVSSLQNKLDRTCGYNKKLRFNENKIYCIPYDLLDMNLAGIYCVNNNKEKIFCKGFLRQIYTNLKEYEILDIAYHNFILNNPCNEHIYDDGTNYKGCQDTSISGRKCLHWNSLNMEKVLPYLYLHNYCRNPEGLSYIYCYVDNNGIITREYCKSRSNIIFNNIAYSREKYFHFDITMKNVADFRIKLDNKPCNQRYFVNNHRINEFTYDKRNYAYHNINGEIALTISFKNFAYNTYYDYKLYICACFKYYYTNDLVICSTDNYKVEIGSFLITKAYTDKDTNVFYLNRQYNLAFNINYEIIKNEIYIIKGDYAYECNHLRIIGNDNIHMITNMNILFNYYKNQNFQKIHPPLEPNKKYSYIYSYFDPILDLSSILRKNELFINPQSSNIIKGYQNVDNLNNDGKTNSKSKFAKNKHMLQNGAP
modifications: bait human Fc-tagged dimer
B4: 28 (protein)
chain: GVLSFKFNTIKNLNVHLEIVMYGLFHIYNYKLNFKIVCDNGYYYIFNDCFPCPQGYYNNINIIKTNVDFINKCMKCDKNKATLIEKSSNKADCLCNFGYEYIKNPADPQEFICSPCTRGMYKNTISNKLCDGNACTGNFATSVIGAKNIIESTCFCKPGFYVTYDYRGIEFCKECLLHFYCPGNVIGIQKCPIHNEALQPEKRINFDSLHGCFCKKGYEPINILNINKAGTRDEHYYKLFHNTYADKFKDINPKHICMECDIGYYKDTISFQPCKKCPNQATNKKYGSTSLNDCNTCHSGYYKNINKACSTCLPNHFCVGDLLQKDLDKYSGDAVICPNNAVTKKPYTQNGAFKDCLCIEGYIKNYQESYNINDHCKLVPLNFYKDSISNDLGTPCPVNSITLNVGAKTINECLCNKGYFYNVKKQQCEECPIGFYCPKISSKNNIKKPIKCPKNSASIKKGMYISNNCQCNFGYTKYIHIDNNQALLNNNIIKYDNKKTNKMFYSFLSNNYYNYKNKINYINKAYNNRNLILLRNIQNKNAIYKKKKRKNVLCIRCPPMTYKGTISNDPCEACPLNSRTIESVNNAHIFFCLCNPGYYLHEQMCKPCSFSKLYCTGENIYIISQSLYETALQEIKNIYVSKNNDMYKMILMNLALYDYSQNVNINNNNNNNNNNNIHNNNIYNIYNSINHYNNDNNIFVNPIVNNKLKHHNNIIYPPYNLLNSQVDTIPFLKKKYGNNINIANILDLNSLYKEPIQNNNNLNTILKSFFHKDNENLIYVKYQNFVTCGKNTVIPLGVDSSYTFDDCKCKKGYYLKSKDINNAIKICEPCKTGTFKNYVGDDTFCLHCPPKSTSLEGSIYPTHCFCKGGFFYSKGYCLECLEGALCKGGLNKNVMQRMKFNMENILITEKDHIKPHSNKNYYLDKSVIDVVDVSEWKFIKCPIKGACLEKNKCHKSMNNYLCIECAKGYTNSFMTSLCVKCPNNIANM
modifications: bait human Fc-tagged dimer
B5: 56 (protein)
chain: FLRNKEHANLINSYNDIVEDINIKKEEKSSSEPPFIPIKNKIDNVHTKNNNQYNLHNNKANKAHLTYGTHTSFLQNCAINDCVDVDNKDSEINNIAKEKDDNNNNNGAKQIEEKNKINKADLHRQNELNLQSGKNEQDINKNEKGKQDISNSNAENKKDVKEGVKELEEKKKEEKISDDHKVEENKKSDDHKVEENKKSDDHKVEENKKSDDHKIEEVKKVEEHEEDEEEDKKEKKSENKNKDENKDENDEDNDEISDEDEVDDDVEEDKNENDDIDDDKKETDKTHLEEEENEIIEKEFSDKKKNGKNKDTKKEKSKDTEKEKSKDIEKEKSKDKEKEKSKDKEKEKGKDKEKEKSKDIEKEKEKDKDIEKEKSKDTAKEKEKDKDIEKEKSKDMEKLKNKQNDEKKKDDNEKKKNDKQDIHDDNDDENDMEEIEENDDEEDEDEDMENKKKKKKGKNGNENGNENGAENGNENGNENGNENENKNEAENENENENENENGNENENEKENEKDKNIKEIENVANANKENYEKINKNSEITITKSNIDIYNNNRNNDIDKVNNHIFTNQQKKHNLHNEQNKFNEALNVATNHKNHYEEKKKYESNMFNVDKRMHKNLASMDTILHNLNDKLSHHKDLKNRELKLKFEAMSRIKEYKIYNELIQKSVEILTLRLTKINDELKKLKDISENALQKYINEKGYGLMKHYNFPEYNKLEEEKIMKRSKITWNEKKSHHLYCPMECNKERCYNRPRGPTQCYKLEQIGRNIETICEPFINEHNGACRPDFHHCAIAEPERNKKYSIYATDDVHFVPSQFVTIKGYNLHECLQFLVVKKNSACGPMTIEKNLMESEEILKEPVLSKVLYNEILFENIKISTPGEYNICLAQFYQDPEKDDILSENSANKYKKKKKNDMKVLGIDTIGTLYVLPLHEKQKTG
modifications: bait human Fc-tagged dimer
B6: 12 (protein)
chain: SDTFRVFEDFDVRRKNKIWCCNLNHEKSYFHNKAINTAYKNRVLKESILLNLDLDMKKYKDNIITRKKTPENIYKEIYENNYEMKYDEDIPNNMAEEKRDEKEVIEHLEIDEKNGKQYKSDINKPVSLSHLKQYKNIYVNNNNKINKKKSIDKHLPSYNLERKNNKYLNFLLVDNRNEAYTFMVPMKFYINHEMYNIADEEYNKLMEDNSVDVYLNNILVEYKYENFEIKEGEVDGEVEGEGEVEGEVEGEVKGKVVEGIENNMNEEEKYNKDNKDKENQINSNGQDENTEFQENDNNDAVIMKYT
modifications: bait human Fc-tagged dimer
B7: 18 (protein)
chain: KENKNDNFLNGIYKLQNIWRNTALGELDLKKANIENAEGIIEKFNDANKADFNQHPHFRSKLSFLEHKNHKDMGIVTNHQNKDHKKNEYTSEEIIDMKPQLASQEMWRKGENFYMHGATNTNEQNDDEDLFESFHKNHNSNIKINSPCFDLQDKEMCSNNKECFYDDAYKACFQNCALVNEKKCSLYSECKHTPNGCQNEGYLNIQVFGSNLGGDVRACELFESEGSCYLMEKLFKKLSEEKKETSFNCVWISYKHELRSYDDENEPKENNDNIVALENKNKYMYMNNVESIHNNHHLENPYHEDIKHNKHKSFNYHVLSSSVPRQIAKNEKFLSLLQLNLKGKKKEKNKKKKKDDEDDDDIDEEDDDLDIEGKNNEFNADEEENSKDLKNNNIDDNEEDGTTDEDDLFNNKKKKKNNNNNNANNNNNKNKNKQNTNKKNNKIINEFDDDIDEVSEENLLNDEEKKQNKIKNKNINEANNIAENNEIEISSKDLTEQYEDKYNYDKKNNMGTNNNFNNANTFANNKNNLHNKYINHASHTQNEKDILKHNFYGKDNNGAYEIIKVETHICANLNEKPNPSTLLEGALIAENEAQLQKIKKKYKVTDNEICVRPTNSAYVSLIPDKKYYLLGEKIEFKCQEGYKIIGTTNIGVCTGRNIISPNIACESLTNFDDVEKDNIQKMNNIINS
modifications: bait human Fc-tagged dimer
B8: 15 (protein)
chain: MAFFSIFIILNFFMLSLTSSLGNGFLHSSITFSNDFCKGMNLHFLISAEEIDSKFFLNKMLLLILGGSSYMRYSKENYFSVSIYDKKLVYKNIKKIENIQGASYYEQLQSAFKKHIKPSARRTNLYESLKEYYEKYIIGNKNIKKSKNIIIIVKKFTSDDLSEYHENLNRYIKEIRSKDVGIYFFSDDSIYSKNIILNIAESGYNMEVQYPIAHFVSESYRANDLFGVKKFCYQLLHGATCKSYNEWSEWSGPCEFERRQRIIPLKITNIESTNFRSHYDPSCRNVFDYSMSIKEDFRVNCKNSIYECRGICDKGYKFKPYAKSNEIVESYEECNDLPPCTRDQRKNGDHTLYADVILNSLLSESSIQQIRDRDDRALIEKDMP
modifications: bait human Fc-tagged dimer
B9: 41 (protein)
chain: VYNVKTQKNEGIIIDKEGKENDNGNSDRNTPNNNNRLNRMTLNKEMYEKHNKMNNEEDNNKNINYDLSNLKDGMKKKHFGSNSAEDKTNKKSSINSVLEKYQHTKHEEKNLQNLNKNMMTHENDDSMKSIFISEESFESAKNVCQFIVMQNDYFKNFCNIASLVYDIEKLKKNNHKIYEEILSNSYENNNGAKFKLLKEINHAKVFKEMDNTNPKFSILFLYDKFCYGGIPLACSNLMKYDNVFDINEQSETTNKPDDNVNMEEMENYIINQAGMENGFEENVADLTQE
modifications: bait human Fc-tagged dimer
B10: 16 (protein)
chain: NNLDKNKNFIQYKNFKKNKAYKYKNNNNNIIIINSHSHSNSHSNSHSHSNSHSNSHSHSNSHSNSHSHSNSHSHSHSNSHSNSHSHSSTQNSLYHDTNQANFLKPTSFFLYKHHVYFNQKYKKDPNILNKLKVPRNHIFHINKCDLNYYIQNYEFFFFFPDYYEYSHLYIRLDKLFYFQRCGCDTNIKKTKKRNQNIFNNMLGMKEKDTYLQNEICDIYWNYLKDDNTYDKYNFAIINYIKNIIKKMYRYLYIYKVFVLKQFYRIVYYNQGIRNFYYMLFSYIYNKGSIIYNYNQMYFKKHRKKQTIIRSKRFMNEHIKEEDVDYNIVKDEKDKSIQSTEQKSYLKNNAIQYFQCFLDKAMENKNAENELDKWIDPQSKSCYCSEEFAEPCTSEDLVDINNINQIMDNAFCEYNNNDNNNNDNNKNNNNNINNIINIYDNNILGDNVKNIFVALSEYKILQCNDKEKKDIIKKEQLYNYCKYGLNIWDNKNMYDYLNCLNVISYNKKDDKTCIRKCENIKKLCNIVAQFYSFEVCKKYYENNKHTEDIYINNFKYFSDHCKYIDPTNRGLVLCKHKNVECVYSQWSEWSTCSKTCIENEYDTNSARTRTRILLNKFEVPSKSCSFIINEKNNLMDINFCSYLPFCNKNNDMKKKDDERIMPFVISIKEIEKLNTLKYLNNDDNDLLNENYKNYESVHKNNECKVTDMYQYEYAISYNEKNKACSCPNNQAPCYFKDIYNSESWKKSLHILCKHNPHINVITADYIIIDCNMAISIKKKEIAVNTYLAMTFNCHSDIFQYIFCAKNIQSIRTN
modifications: bait human Fc-tagged dimer

Target: FGFR4 ectodomain (Homo sapiens, UniProt P22455)
Assay: AVEXIS normalised luminescence

Binder	binding score
B1	1.22
B2	0.776
B3	0.943
B4	0.857
B5	0.733
B6	0.891
B7	1
B8	0.902
B9	1.23
B10	1.5
